± gives the uncertainty stated by the source.
test: amyloid nucleation score (Sup35N fusion, yeast selection) (log enrichment); library NNK2; higher = more nucleation; inactive = no reads after selection
In short: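 Plasmid inserts were Illumina-sequenced at input and output from psi-negative yeast expressing Sup35N fused to peptides of 20 random codons. The yeast were induced with 100 μM copper sulfate for 24 hours and grown 7 days at 30°C on medium lacking adenine and uracil, and sequences with under 100 input reads were excluded. Nucleation score is the DiMSum log enrichment of output over input reads, centred on the mode score of non-aggregating sequences.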

IKFVEPYSFLS and IKIIPPLKLLCVLGWHSRGA are within error of each other in amyloid nucleation score: 1.32 ± 0.092 for the first, 1.35 ± 0.19 for the second.

Going from IKVYESYVRT to ILCLF, the amyloid nucleation score rises from -0.812 ± 0.39 to 0.909 ± 0.45.

Compared with ILCYMVGSRIMCVEHSGC, ILDSGVRYVFMRWLIGYCND is lower in amyloid nucleation score: 8.588 ± 0.064 for the first, -0.513 ± 0.33 for the second.

First: ILFVLWKLDRRPCSLLEYTQ
Second: ILGSFEHSTQGKYSYWGMRG
The amyloid nucleation score of the first is lower: 0.463 ± 0.56 for the first, 4.51 ± 0.066 for the second.

First: ILIMGMILNSMYV
Second: ILIVVMCFHSNNKSRDNRIY
The amyloid nucleation score of the first is higher: 0.516 ± 0.64 for the first, -1.46 ± 1 for the second.

ILLNGRSFLRS and ILLVSATHYSQLNKGRPNDL are within error of each other in amyloid nucleation score: 0.174 ± 1 for the first, 1.43 ± 0.35 for the second.

Going from ILMRSYDFALGPNQCIIRAK to ILQFKVGKGQGNAQLFKPII, the amyloid nucleation score falls from 4.95 ± 0.074 to -0.935 ± 0.55.

Compared with ILRDDGPNYRFQIRLL, ILRTDMMINMDLLFGNVGNL is lower in amyloid nucleation score: 4.647 ± 0.038 for the first, 3.38 ± 0.089 for the second.

Going from ILSCGRYWRTDTIVVTGNST to ILSDKCLIGIGCSISSDTAG, the amyloid nucleation score falls from 1.91 ± 0.35 to -0.352 ± 0.38.

First: ILSQPEEGLGGTKSSFCVVF
Second: ILSRTKVFYNSSCETDVMWL
The amyloid nucleation score of the first is lower: -0.363 ± 1.1 for the first, 4.17 ± 0.085 for the second.

ILSSFMQ and ILTGR are within error of each other in amyloid nucleation score: -0.2 ± 0.41 for the first, -0.16 ± 0.55 for the second.

ILVSFYRDSS and ILVSMDRLCLWAGTSASGFS are within error of each other in amyloid nucleation score: 0.416 ± 0.44 for the first, 0.278 ± 0.55 for the second.

ILVWLGQTEEASVDRRAQHT and ILYSDFRMYSGRFLSEMVRI are within error of each other in amyloid nucleation score: 0.43 ± 0.32 for the first, 0.247 ± 0.39 for the second.

IMFICTGRSLTHTD and IMGKLHTADYIIVLRLIDRS are within error of each other in amyloid nucleation score: -0.642 ± 1.1 for the first, -0.349 ± 0.41 for the second.

First: IMIFSLVTMLDVNGTIC
Second: IMLKGDWC
The amyloid nucleation score of the first is higher: 7.477 ± 0.047 for the first, -0.189 ± 0.47 for the second.

Compared with IMTDPRSSLSLWCLNLSVNG, IMTMTGNVDNIAVIRRS is lower in amyloid nucleation score: 4.88 ± 0.082 for the first, -0.519 ± 1 for the second.

Compared with INQFMRDFLDHLPCAYRVYN, INVFSYSL is higher in amyloid nucleation score: -0.049 ± 0.55 for the first, 2.58 ± 0.089 for the second.

Compared with INVPCFRLKSSVGVISLQGT, IPEVESIGMGWGWREISGEC is higher in amyloid nucleation score: 0.205 ± 0.26 for the first, 1.42 ± 0.41 for the second.

First: IPLQSTMRFRCPVMDLGNFI
Second: IPRCKKW
The amyloid nucleation score of the first is lower: -0.849 ± 1 for the first, 3.22 ± 0.1 for the second.

Compared with IPSCRVFICRGNNVFRVPIT, IPYEKPHRYIVNWECVAGSM is higher in amyloid nucleation score: -1.06 ± 1.1 for the first, 0.621 ± 0.43 for the second.

First: IQDLRFNITVTMPLESVSFM
Second: IQGPIVEFTISIRSSSRRHW
The amyloid nucleation score of the first is higher: 7.046 ± 0.058 for the first, 3.1 ± 0.083 for the second.

First: IQKLRVRHDMISYTSEMSVN
Second: IRDWHWTNVGSCNCCFFCQG
The amyloid nucleation score of the first is lower: -0.218 ± 0.55 for the first, 9.244 ± 0.079 for the second.

First: IRFGLVWRLKLGFMLGLNSA
Second: IRGCLNMFWLKKWDLPRLYF
The amyloid nucleation score of the first is higher: 4.98 ± 0.095 for the first, -0.327 ± 0.63 for the second.

Going from IRGDNWMVCTTYTNSSFLRS to IRGGHTLSYRVEDKRPTEWG, the amyloid nucleation score rises from 0.215 ± 0.57 to 2.04 ± 0.2.

First: IRKGSHGSKMIEPVAMRSAC
Second: IRLAYASRNWCSSFGCGRMI
The amyloid nucleation score of the first is higher: 4.88 ± 0.083 for the first, -0.571 ± 0.55 for the second.

Compared with IRLVMWCYHQNDCVVFSSLH, IRLYKGVTWIFLSGSYLLRD is lower in amyloid nucleation score: 1.94 ± 0.13 for the first, -0.891 ± 1.1 for the second.

First: IRMDGYEIRFSHSLYYLSH
Second: IRQIIESWQFLYISVYAGLV
The amyloid nucleation score of the first is higher: 2.45 ± 0.081 for the first, 0.186 ± 0.51 for the second.

IRQPSVKQPWTVAKTFH and IRSGIIPVTVGPYHGALYMV are within error of each other in amyloid nucleation score: 0.052 ± 0.5 for the first, 0.662 ± 0.74 for the second.

Going from IRSLFLVDYNRMIGMPKGMY to IRSPDAVNSNCATPRMRVY, the amyloid nucleation score falls from 1.55 ± 0.2 to 0.499 ± 0.36.

First: ISACFKMGNRGYVICAMSRV
Second: ISFLSNR
The amyloid nucleation score of the first is lower: -0.306 ± 0.45 for the first, 1.58 ± 0.27 for the second.

Compared with ISGLETYLRSYWICIWSMWA, ISLAINIAPLLLCTESTEWG is lower in amyloid nucleation score: 3.02 ± 0.15 for the first, -0.133 ± 0.65 for the second.

Going from ISLHDRWIADPFVTACGKRY to ISLHILCCRSMF, the amyloid nucleation score rises from 0.386 ± 0.19 to 8.618 ± 0.079.

ISNVNLTE and ISPTKSNLYMADVEFREPGT are within error of each other in amyloid nucleation score: -0.763 ± 0.4 for the first, -0.883 ± 0.49 for the second.

ISRRHGFIILLGNDIRRVDY and ISRVSGGQTLPSGLVMG are within error of each other in amyloid nucleation score: 0.554 ± 0.81 for the first, -0.326 ± 0.45 for the second.

Compared with ISSMSTLFCLFRGCVGGEYI, ISVGRSYSV is higher in amyloid nucleation score: -2.18 ± 0.64 for the first, 0.694 ± 0.24 for the second.

ISVKFNEEACKFYDLCN and ISVYLSRSIFI are within error of each other in amyloid nucleation score: -0.294 ± 1 for the first, -0.326 ± 1 for the second.

ISYHSVWDKLFFYVVDFYTS and ITCVVLPLSRWDVHFKCSCH are within error of each other in amyloid nucleation score: -0.591 ± 1 for the first, 0.096 ± 0.31 for the second.

First: ITDVFSDAACNRWQINYTQA
Second: ITFAYVSLTLHRINEMGYQL
The amyloid nucleation score of the first is lower: -0.832 ± 0.33 for the first, 4.65 ± 0.049 for the second.

ITHQRSSACIVGFILRRRCN gave an amyloid nucleation score of -0.369 ± 0.54.

For ILWLTADFTLLISNYMCLS, the amyloid nucleation score was “inactive”.
With IMHSLLRSGN the amyloid nucleation score was “inactive”.
In the case of IMRMNVMCGVRYPYALFALL, the amyloid nucleation score is reported as “inactive”.
With INFSTLYDLGESFFYQCPKM the amyloid nucleation score was “inactive”.
For INRPYNIVGRRSSPSHIVTF, the amyloid nucleation score was “inactive”.
For IPIWFERIALSDFKLVFSHN, the amyloid nucleation score was “inactive”.
For IPYSSPS, the amyloid nucleation score was “inactive”.
With ISLIFCNSTRIYKFLLMFSW the amyloid nucleation score was “inactive”.
With ITCDRYITDVIDNEA the amyloid nucleation score was “inactive”.

— the supplement of paper PMC12042874
